Experimental data from patent publication US20250051407A1, “De novo designed sequence-specific DNA binding proteins” (University of Washington, priority 2023, published 2025).

Tests used:
[1] = tested on: synTF-specific cis-regulatory elements (CRE) in HEK293T cells; experiment: Transcriptional activation by synTFs in HEK293T cells (ENGRAM); assay type: cell-based; conditions: DBP fused to GCN4 dimerization domain and VP64; HEK293T cells expressing PEmax; dependent on spacing between motifs
Outline: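 GCN4–VP64 fusions were co-transfected into PEmax-expressing HEK293T cells with barcoded pegRNA recorders driven by CREs of 4 palindromic repeats (spacings 1, 3 or 5 bp), with a TCF-LEF recorder as control (ratio 2:2:2:1). After 2 days, the HEK3 DNA TAPE was sequenced. Activation is given as barcode fold change versus control, in triplicate.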

13 unique dsDNA targets = experiment: All-by-all yeast surface display screen of DBP design hits; assay type: binding
Outline: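 EBY100 yeast displaying designs were induced 16–24 h at 30°C, then labelled with biotinylated dsDNA either with avidity (SAPE premixed at one-quarter of target concentration) or without (target, then SAPE/FITC). Competition ran without avidity at 1 μM biotinylated duplex plus 8 μM unlabelled competitor. Flow cytometry read-out is the SAPE/FITC ratio over gated expressing cells.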

B1: DBP48: designed DNA-binding protein, SEQ ID NO: 22, DNA target D (protein)
chain: MTPEEIAEAKRIGKEVKERRKELGLTQRELAEKLGVSRSTVSDIENGRRLPSEELLKKIKEILGV
Fold activation of synTFs measured as normalized barcode abundance in the DNA TAPE [1]: didn't show detectable activation | Number of the 13 tested DNA target sequences preferentially bound (13 unique dsDNA targets; 1 μM dsDNA with avidity, including designed target sequence): less than 3 | Binding specificity versus design models (13 unique dsDNA targets; all-by-all screen with Rosetta-predicted motifs): bound with specificity closely consistent with the design models | Binding to initial design target (13 unique dsDNA targets; yeast surface display, 1 μM dsDNA with avidity): bound weakly | Binding to alternate target sequence (13 unique dsDNA targets; yeast surface display, 1 μM dsDNA with avidity, alternate target H (DBP90), D (DBP48), C (DBP57)): strongly
